From US20240117018A1

Tests used:
Experiment in all cases: cell-based or functional assay
[1] = target: HIV-1 Env of pseudovirus R1166.c01 (HIV-1)
[2] = target: HIV-1 Env of pseudovirus 6545.v4.c1 (HIV-1)
[3] = target: HIV-1 Env of pseudovirus 3103.v3.c10 (HIV-1)
[4] = target: HIV-1 Env of pseudovirus 9004SS_A3_4 (HIV-1)
[5] = target: HIV-1 Env of pseudovirus C3347.c11 (HIV-1)
[6] = target: HIV-1 Env of pseudovirus 3301.v1.c24 (HIV-1)
[7] = target: HIV-1 Env of pseudovirus BJOX015000.11.5 (HIV-1)
[8] = target: HIV-1 Env of pseudovirus X1254_c3 (HIV-1)
[9] = target: HIV-1 Env of pseudovirus C1080.c03 (HIV-1)
[10] = target: HIV-1 Env of pseudovirus 6952.v1.c20 (HIV-1)
[11] = target: HIV-1 Env of pseudovirus 6540.v4.c1 (HIV-1)
[12] = target: HIV-1 Env of pseudovirus BJOX028000.10.3 (HIV-1)
[13] = target: HIV-1 Env of pseudovirus A07412M1.vrc12 (HIV-1)
[14] = target: HIV-1 Env of pseudovirus T257-31 (HIV-1)
[15] = target: HIV-1 Env of pseudovirus 235-47 (HIV-1)
[16] = target: HIV-1 Env of pseudovirus BJOX025000.01.1 (HIV-1)
[17] = target: HIV-1 Env of pseudovirus R3265.c06 (HIV-1)
[18] = target: HIV-1 Env of pseudovirus 6811.v7.c18 (HIV-1)
[19] = target: HIV-1 Env of pseudovirus R2184.c04 (HIV-1)
[20] = target: HIV-1 Env of pseudovirus 3817.v2.c59 (HIV-1)
[21] = target: HIV-1 Env of pseudovirus T278-50 (HIV-1)
[22] = target: HIV-1 Env of pseudovirus 263-8 (HIV-1)
[23] = target: HIV-1 Env of pseudovirus 928-28 (HIV-1)
[24] = target: HIV-1 Env of pseudovirus X1632_S2_B10 (HIV-1)
[25] = target: HIV-1 Env of pseudovirus 231965.c01 (HIV-1)
[26] = target: HIV-1 Env of pseudovirus X2088_c9 (HIV-1)
[27] = target: HIV-1 Env of pseudovirus X1193_c1 (HIV-1)
[28] = target: HIV-1 Env of pseudovirus 231966.c02 (HIV-1)
[29] = target: HIV-1 Env of pseudovirus T251-18 (HIV-1)
[30] = target: HIV-1 Env of pseudovirus 0815.v3.c3 (HIV-1)
[31] = target: HIV-1 Env of pseudovirus 6480.v4.c25 (HIV-1)
[32] = target: HIV-1 Env of pseudovirus 620345.c01 (HIV-1)
[33] = target: HIV-1 Env of pseudovirus 3016.v5.c45 (HIV-1)
[34] = target: HIV-1 Env of pseudovirus 6041.v3.c23 (HIV-1)
[35] = target: HIV-1 Env of pseudovirus P0402_c2_11 (HIV-1)
[36] = target: HIV-1 Env of pseudovirus X2131_C1_B5 (HIV-1)

Substance: N49P7 (antibody)
- IC50 [1]: 0.092 µg/mL
- IC80 [1]: 0.313 µg/mL
- MPI [1]: 100
- IC50 (neutralisation, TZM.bl cells) [2]: 2 µg/mL
- IC80 (neutralisation, TZM.bl cells) [2]: 14.7 µg/mL
- MPI [2]: 96
- IC50 (neutralisation, TZM.bl cells) [3]: 0.158 µg/mL
- IC80 (neutralisation, TZM.bl cells) [3]: 0.509 µg/mL
- MPI [3]: 100
- IC50 [4]: 0.125 µg/mL
- IC80 [4]: 0.39 µg/mL
- MPI [4]: 100
- IC50 [5]: 0.024 µg/mL
- IC80 [5]: 0.067 µg/mL
- MPI [5]: 100
- IC50 (neutralisation, TZM.bl cells) [6]: 0.025 µg/mL
- IC80 (neutralisation, TZM.bl cells) [6]: 0.069 µg/mL
- MPI [6]: 100
- IC50 [7]: 0.036 µg/mL
- IC80 [7]: 0.157 µg/mL
- MPI [7]: 100
- IC50 [8]: 2.97 µg/mL
- IC80 [8]: 13.6 µg/mL
- MPI [8]: 100
- IC50 [9]: 0.114 µg/mL
- IC80 [9]: 0.765 µg/mL
- MPI [9]: 100
- IC50 (neutralisation, TZM.bl cells) [10]: 18.4 µg/mL
- IC80 (neutralisation, TZM.bl cells) [10]: 38.9 µg/mL
- MPI [10]: 91
- IC50 (neutralisation, TZM.bl cells) [11]: 11.7 µg/mL
- IC80 (neutralisation, TZM.bl cells) [11]: 33.2 µg/mL
- MPI [11]: 92
- IC50 [12]: 0.02 µg/mL
- IC80 [12]: 0.123 µg/mL
- MPI [12]: 100
- IC50 (neutralisation, TZM.bl cells) [13]: 0.108 µg/mL
- IC80 (neutralisation, TZM.bl cells) [13]: 0.645 µg/mL
- MPI [13]: 100
- IC50 [14]: 0.158 µg/mL
- IC80 [14]: 0.619 µg/mL
- MPI [14]: 100
- IC50 [15]: 0.045 µg/mL
- IC80 [15]: 0.3 µg/mL
- MPI [15]: 99
- IC50 [16]: 0.038 µg/mL
- IC80 [16]: 0.236 µg/mL
- MPI [16]: 100
- IC50 [17]: 0.048 µg/mL
- IC80 [17]: 0.282 µg/mL
- MPI [17]: 100
- IC50 (neutralisation, TZM.bl cells) [18]: 0.229 µg/mL
- IC80 (neutralisation, TZM.bl cells) [18]: 0.992 µg/mL
- MPI [18]: 100
- IC50 [19]: 0.011 µg/mL
- IC80 [19]: 0.031 µg/mL
- MPI [19]: 100
- IC50 (neutralisation, TZM.bl cells) [20]: 0.716 µg/mL
- IC80 (neutralisation, TZM.bl cells) [20]: 3.73 µg/mL
- MPI [20]: 99
- IC50 [21]: 22.3 µg/mL
- IC80 [21]: > 50 µg/mL
- MPI [21]: 75
- IC50 [22]: 0.056 µg/mL
- IC80 [22]: 0.201 µg/mL
- MPI [22]: 100
- IC50 [23]: 0.167 µg/mL
- IC80 [23]: 0.579 µg/mL
- MPI [23]: 100
- IC50 (neutralisation, TZM.bl cells) [24]: 12 µg/mL
- IC80 (neutralisation, TZM.bl cells) [24]: 40.4 µg/mL
- MPI [24]: 85
- IC50 (neutralisation, TZM.bl cells) [25]: 0.054 µg/mL
- IC80 (neutralisation, TZM.bl cells) [25]: 0.193 µg/mL
- MPI [25]: 100
- IC50 [26]: 0.116 µg/mL
- IC80 [26]: 0.338 µg/mL
- MPI [26]: 100
- IC50 [27]: 0.016 µg/mL
- IC80 [27]: 0.06 µg/mL
- MPI [27]: 100
- IC50 (neutralisation, TZM.bl cells) [28]: 0.102 µg/mL
- IC80 (neutralisation, TZM.bl cells) [28]: 0.43 µg/mL
- MPI [28]: 100
- IC50 [29]: 0.178 µg/mL
- IC80 [29]: 0.62 µg/mL
- MPI [29]: 100
- IC50 (neutralisation, TZM.bl cells) [30]: 0.016 µg/mL
- IC80 (neutralisation, TZM.bl cells) [30]: 0.053 µg/mL
- MPI [30]: 100
- IC50 (neutralisation, TZM.bl cells) [31]: 0.031 µg/mL
- IC80 (neutralisation, TZM.bl cells) [31]: 0.113 µg/mL
- MPI [31]: 100
- IC50 [32]: 23.2 µg/mL
- IC80 [32]: 47.9 µg/mL
- MPI [32]: 82
- IC50 (neutralisation, TZM.bl cells) [33]: 0.221 µg/mL
- IC80 (neutralisation, TZM.bl cells) [33]: 1.04 µg/mL
- MPI [33]: 100
- IC50 (neutralisation, TZM.bl cells) [34]: 0.047 µg/mL
- IC80 (neutralisation, TZM.bl cells) [34]: 0.222 µg/mL
- MPI [34]: 100
- IC50 [35]: 0.014 µg/mL
- IC80 [35]: 0.061 µg/mL
- MPI [35]: 100
- IC50 (neutralisation, TZM.bl cells) [36]: 0.081 µg/mL
- IC80 (neutralisation, TZM.bl cells) [36]: 0.273 µg/mL
- MPI [36]: 100
